Experimental findings from patent US20190033318A1 (UNIVERSITY OF SOUTHAMPTON, published 2019) are described below.

For series [1], the target named is T1, Trx-2α (thioredoxin-tagged HIF-2α 1-360, bHLH-PASA-PASB) (UniProt Q99814 1-360).
T1 construct: range 1-360; not shown: Thioredoxin-His6 tag of vector pET32
The experiment in a line: competition ELISA: His-tagged Trx-2α on Ni plate, peptide titrated, binding of GST-1β (blocked partner) detected with anti-GST, A450. As for the experimental part:
(§1) IC₅₀ values for the compound=3.7 μM/8.8 μM for 1α/2α.
(§2) 25 μL of His-tagged HIF-α protein (either Trx-1α, Trx-2α, 1α PASB, or 2α PASB) at 0.1 μM in HIF assay buffer were added to individual wells of a Pierce Ni²⁺-coated 96-well plate (Thermo) in triplicate. The plate was rocked gently at room temperature for 1 hr, before washing with 3×200 μL assay buffer (5 min incubation per wash). 25 μL of compounds and/or DMSO at the stated concentrations were added to the plate and allowed to equilibrate for 30 min prior to the addition of 25 μL of GST-1β at 0.2 μM in assay buffer for 1 hr. For conditions in which no compound or DMSO were used, GST-1β was added as a 0.1 μM solution. After incubation with GST-1β, the wells were washed with 3×200 μL assay buffer then 1×200 μL PBS. The wells were then incubated with 100 μL mouse α-GST antibody (Thermo, MS-707-P) at a 1/1000 dilution in PBS supplemented with 0.1% Tween-20 (PBST) and 2% non-fat powdered milk (Marvel) for 1 hr, followed by 3×200 μL washed with PBS. 100 μL of secondary HRP-conjugated α-mouse antibody (GE Healthcare) was added at a 1/6000 dilution in 2% milk/PBST for 1 hr, then washed with 3×200 μL PBS. […] Absorbance was read at 450 nm using a Tecan Infinite M200 Pro plate reader. Data were fitted and IC₅₀ values determined by non-linear regression using GraphPad Prism 6.
A general note: In an ELISA, binding on a coated surface is turned into a signal by an enzyme label.

Series [2] has as its target T2, Trx-1α (thioredoxin-tagged HIF-1α 1-350, bHLH-PASA-PASB) (UniProt Q16665 1-350).
T2 construct: range 1-350; not shown: Thioredoxin-His6 tag of vector pET32
The series is described as follows: competition ELISA: His-tagged Trx-1α on Ni plate, peptide titrated, binding of GST-1β (blocked partner) detected with anti-GST, A450. As for the experimental part: as §1, §2

Series [3] concerns the target T3, 1α PASB (HIF-1α PASB domain, 238-349) (UniProt Q16665 238-349, labelled with NT-647-NHS dye in MST).
T3 construct: range 238-349; not shown: His6 tag of vector pET28, then Met
The series is described as follows: ELISA, 1α PASB on Ni plate, inhibition of GST-1β binding. The procedure: (§3) ELISA assays were conducted using 1α/2α PASB domains.
as §2

The target in series [4] is T4, 2α PASB (HIF-2α PASB domain, 240-350) (UniProt Q99814 240-350, labelled with NT-647-NHS dye in MST; 15N (and 13C 15N) labelled in NMR).
T4 construct: range 240-350; also called PAS B domain of HIF-2α; not shown: His6 tag of vector pET28, then Met
T4 sequence (Q99814 240-350): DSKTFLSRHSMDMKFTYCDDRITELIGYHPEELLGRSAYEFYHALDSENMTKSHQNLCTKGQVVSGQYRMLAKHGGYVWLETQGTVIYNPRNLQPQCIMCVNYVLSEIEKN
The experiment in a line: MST, peptide titrated into fluorescently labelled 2α PASB. As for the experimental part: (§4) Microscale thermophoresis (MST) was performed to determine Kd of peptide binding to fluorescently labelled HIF-1α/2α PASB domains.
(§5) 0.5 mL of 1α or 2α PASB protein stocks in HIF storage/assay buffer were dialysed against 1 L of MST labelling buffer (100 mM NaHCO₃ pH 8, 150 mM NaCl and 5% glycerol) for 1.5 hr at 4° C., then against 1 L of fresh labelling buffer at 4° C. overnight. 100 μL of each dialysed protein diluted to 10 μM were incubated with 100 μL of 30 μM NT-647-NHS dye (NanoTemper protein labelling kit) for 20 min in the dark, then exchanged into 650 μL HIF assay buffer supplemented with 0.05% Tween-20 using the supplied gravity flow purification columns. A dilution series of cyclo-CRVIIF (SEQ ID NO 4) or alanine scan analogues (in HIF assay buffer, 10% DMSO) was mixed with equal volumes of labelled 1α PASB or 2α PASB at 100 nM and allowed to equilibrate for 10 min. Samples were loaded into hydrophilic capillaries and, after optimising the power, MST was performed using a Monolith […] instrument (NanoTemper). Data were analysed using NT Analysis Software using the Temperature Jump analysis mode.

In series [5] the target is T4, 2α PASB (HIF-2α PASB domain, 240-350). The experiment in a line: ELISA, 2α PASB on Ni plate, inhibition of GST-1β binding. As for the experimental part:
as §3, §2

Series [6] has as its target T3, 1α PASB (HIF-1α PASB domain, 238-349). The experiment in a line: MST, peptide titrated into fluorescently labelled 1α PASB. The procedure:
as §4, §5

The target of series [7] is T4, 2α PASB (HIF-2α PASB domain, 240-350). The series is described as follows: thermal shift assay, 1 mM peptide. As for the experimental part: (§6) Thermal denaturation of HIF proteins was performed in 20 μL reactions in triplicate using a Bio-Rad CFX Connect Real-Time System. Proteins were used at either 5 μM (Trx-1α, Trx-2α and GST-1β) or 15 μM (His-tagged PASB domains) in HIF assay buffer, with 10 mM DTT and SYPRO orange dye (Life Technologies) at a final concentration of 8×(relative to 5000×stock), and supplemented with either DMSO or compound dissolved in DMSO at the stated concentrations. The reaction plate was assembled on ice, then transferred to the pre-chilled thermal cycler, held at 10° C. for 5 min (heated lid, 105° C.), then the temperature ramped to 95° C. Fluorescence was recorded at 0.5° C. increments, holding for 5 sec at each temperature. Data were plotted using GraphPad Prism 6, and melting temperatures calculated using the first derivative method in which the peak (i.e. the steepest transition between data points) represents the point at which 50% of the protein sample is denatured. Errors are quoted as the inherent error associated with the first derivative of the data, i.e. ±0.25° C. for Tₘ values and ±0.5° C. for ΔTₘ values.

Series [8] concerns the target T1, Trx-2α (thioredoxin-tagged HIF-2α …). The series is described as follows: thermal shift assay, 1 mM peptide. The procedure:
as §6

Series [9] deals with T5, 1β PASB (HIF-1β PASB domain, 356-474) (UniProt P27540 356-474).
T5 construct: range 356-474; not shown: His6 tag of vector pET28
T5 sequence (P27540 356-474): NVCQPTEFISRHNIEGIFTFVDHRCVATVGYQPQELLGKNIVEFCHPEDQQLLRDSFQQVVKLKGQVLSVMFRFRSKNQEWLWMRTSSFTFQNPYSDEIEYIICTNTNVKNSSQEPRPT
The experiment in a line: thermal shift assay, 1 mM peptide. The procedure: as §6

For series [10], the target named is T2, Trx-1α (thioredoxin-tagged HIF-1α …). The experiment in a line: thermal shift assay, 1 mM peptide. The procedure: as §6
Series [11] addresses T3, 1α PASB (HIF-1α PASB domain, 238-349). The series is described as follows: thermal shift assay, 1 mM peptide. The procedure:
as §6

Series [12] has the same target. The series is described as follows: competition ELISA: 1α PASB on Ni plate, peptide titrated, blocked partner GST-1β; the value stands in the panel without a name, the ELISA fits give IC50. As for the experimental part:
as §2

Series [13] deals with T4, 2α PASB (HIF-2α PASB domain, 240-350). The experiment in a line: competition ELISA: 2α PASB on Ni plate, peptide titrated, blocked partner GST-1β; the value stands in the panel without a name, the ELISA fits give IC50. The procedure:
as §2

For series [14], the target named is T3, 1α PASB (HIF-1α PASB domain, 238-349). The series is described as follows: competition ELISA: 1α PASB on Ni plate, peptide titrated, blocked partner GST-1β; the value stands in the panel without a name, the ELISA fits give IC50; the fall is only partial. As for the experimental part: as §2
Series [15] concerns the target T4, 2α PASB (HIF-2α PASB domain, 240-350). The experiment in a line: competition ELISA: 2α PASB on Ni plate, peptide titrated, blocked partner GST-1β; the value stands in the panel without a name, the ELISA fits give IC50; the fall is only partial. As for the experimental part: as §2
Series [16] concerns the target T6, HIF-1α (construct not given) (UniProt Q16665 1-350, limits assumed).
T6 construct: also called HIF-1 ELISA
The series is described as follows: HIF-1 ELISA, inhibition of HIF-1α/HIF-1β dimerisation. As for the experimental part: (§7) 25 μL of His-tagged HIF-α protein (either Trx-1α, Trx-2α, 1α PASB, or 2α PASB) at 0.1 μM in HIF assay buffer were added to individual wells of a Pierce Ni²⁺-coated 96-well plate (Thermo) in triplicate. The plate was rocked gently at room temperature for 1 hr, before washing with 3×200 μL assay buffer (5 min incubation per wash). 25 μL of compounds and/or DMSO at the stated concentrations were added to the plate and allowed to equilibrate for 30 min prior to the addition of 25 μL of GST-1β at 0.2 μM in assay buffer for 1 hr. For conditions in which no compound or DMSO were used, GST-1β was added as a 0.1 μM solution. After incubation with GST-1β, the wells were washed with 3×200 μL assay buffer then 1×200 μL PBS. The wells were then incubated with 100 μL mouse α-GST antibody (Thermo, MS-707-P) at a 1/1000 dilution in PBS supplemented with 0.1% Tween-20 (PBST) and 2% non-fat powdered milk (Marvel) for 1 hr, followed by 3×200 μL washed with PBS. 100 μL of secondary HRP-conjugated α-mouse antibody (GE Healthcare) was added at a 1/6000 dilution in 2% milk/PBST for 1 hr, then washed with 3×200 μL PBS. Wells were incubated with 100 μL of 1-Step Ultra TMB-ELISA solution (Thermo) until a blue colour developed (typically 10-15 min) and the reaction was stopped by the addition of 100 μL of a ⅕ dilution of conc. H₂SO₄, which turned the solution yellow. Absorbance was read at 450 nm using a Tecan Infinite M200 Pro plate reader. Data were fitted and IC₅₀ values determined by non-linear regression using GraphPad Prism 6.

The target of series [17] is T3, 1α PASB (HIF-1α PASB domain, 238-349). The series is described as follows: MST, HIF-1α PASB domain.
Series [18] addresses T4, 2α PASB (HIF-2α PASB domain, 240-350). The experiment in a line: MST, HIF-2α PASB domain.
Series [19] has as its target T7, HIF-2α (construct not given) (UniProt Q99814 1-360, limits assumed).
T7 construct: also called HIF-2 ELISA
The experiment in a line: HIF-2 ELISA, inhibition of HIF-2α/HIF-1β dimerisation. The procedure:
as §7

Series [20] has as its target T1, Trx-2α (thioredoxin-tagged HIF-2α …). The series is described as follows: ELISA, Trx-2α on Ni plate, inhibition of GST-1β binding. The procedure:
as §1, §2

Series [21] addresses T2, Trx-1α (thioredoxin-tagged HIF-1α …). The experiment in a line: ELISA, Trx-1α on Ni plate, inhibition of GST-1β binding. As for the experimental part: as §1, §2

T1 sequence (Q99814 1-360): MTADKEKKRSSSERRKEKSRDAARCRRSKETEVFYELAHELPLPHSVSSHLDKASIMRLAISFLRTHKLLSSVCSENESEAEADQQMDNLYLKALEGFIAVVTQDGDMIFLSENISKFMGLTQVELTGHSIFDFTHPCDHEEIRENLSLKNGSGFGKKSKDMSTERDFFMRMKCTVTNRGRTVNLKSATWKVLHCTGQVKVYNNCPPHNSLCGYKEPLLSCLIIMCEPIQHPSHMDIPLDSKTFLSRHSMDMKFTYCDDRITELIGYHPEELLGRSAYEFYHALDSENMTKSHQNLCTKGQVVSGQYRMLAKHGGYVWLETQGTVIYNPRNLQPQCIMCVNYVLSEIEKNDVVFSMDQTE
T7 sequence (Q99814 1-360 limits assumed): as the sequence (Q99814 1-360) above

As for CRVIIF (cyclic peptide (cyclo-, first amino acid joined to the last), also called Compound C) [cyclo-CRVIIF (SEQ ID NO 4)], the IC50 (commonly the concentration that inhibits the measured activity by half) came to 244 µM in series [1], 115 µM in series [2], 5.4 µM in series [3] and 15.2 µM in [5]. Moreover, the values for the Kd in series [4] and in [6] were 133 µM and 158 µM, respectively. The ΔTm in [7] was -2.5 ° C; in series [8], -2 ° C; in series [9], -0.5 ° C; in series [10] it was -1 ° C; in series [11], -1.5 ° C.

B1: CAVIIF (peptide)
peptide: CAVIIF
notes: also called alanine scan peptide of CRVIIF, position 2 (R to A)
With B1, the IC50 in series [12] is 112 µM; in series [13], 22.3 µM.

B2: CRVIIA (peptide)
peptide: CRVIIA
notes: also called alanine scan peptide of CRVIIF, position 6 (F to A)
With B2, the IC50 stood at 110 µM in series [14] and 37.1 µM in series [15].

B3: cyclo-CRLLIF (SEQ ID NO 3) (peptide)
peptide: CRLLIF
modifications: cyclic peptide (cyclo-, first amino acid joined to the last)
notes: One of the 4 cyclic peptide hits of the SICLOPPS screen; made by solid phase synthesis; also called CRLLIX where X = F
Turning to B3, the concentration for half-maximal inhibition (IC50) came to 186 µM in series [1], 102 µM in series [2], 71.3 µM in [16] and 98.3 µM in series [19]. The Kd (usually the free concentration of one partner at which half of the binding sites on the other are occupied at equilibrium, for simple one-to-one binding) in series [17] is 36.9 µM; in [4] it was 59.6 µM; in [6], 13.5 µM; in [18], 15.4 µM. Also, the ΔTm was -4 ° C in series [7]; -4 ° C in [8]; -1 ° C in [9]; 0.5 ° C in series [10]; -2 ° C in [11].

Take CKLIIF (cyclic peptide (first amino acid joined to the last)) [cyclo-CKLIIF (SEQ ID NO 2)]: the Kd stood at 4.6 µM in [4] and 2.5 µM in series [6]. The IC50 in [20] amounted to 8.8 µM; in series [21], 3.7 µM. In addition, the ΔTm was -2.5 ° C in [7]; -2.5 ° C in [8]; -0.5 ° C in series [9]; -1.5 ° C in [10]; -1 ° C in [11].
